# Data taken from the supplement of paper PMC11246515.
# ± gives the standard deviation of the averaged measurements.
# Test: total protein half-life in vivo (active degradation + dilution); higher = more stable protein
# [1] = E. coli NCM3722 delta-clpP, growth: N-lim chemostat, doubling time 6 h
# [2] = E. coli NCM3722 delta-hslV, growth: N-lim chemostat, doubling time 6 h
# [3] = E. coli NCM3722 delta-lon, growth: N-lim chemostat, doubling time 6 h
# [4] = E. coli NCM3722 delta-smpB, growth: N-lim chemostat, doubling time 6 h
# [5] = wild type E. coli NCM3722, growth: C-lim chemostat, doubling time 6 h
# [6] = wild type E. coli NCM3722, growth: C-lim chemostat, doubling time 12 h
# [7] = wild type E. coli NCM3722, growth: N-lim chemostat, doubling time 6 h
# [8] = wild type E. coli NCM3722, growth: N-lim chemostat, doubling time 12 h
# [9] = wild type E. coli NCM3722, growth: P-lim chemostat, doubling time 6 h
# [10] = wild type E. coli NCM3722, growth: P-lim chemostat, doubling time 12 h
# [11] = E. coli NCM3722 delta-clpP delta-lon delta-hslV, growth: N-lim chemostat, doubling time 6 h
# [12] = wild type E. coli NCM3722, growth: C-lim chemostat, doubling time 3 h
Sequence,total protein half-life in vivo [1] [h],total protein half-life in vivo [2] [h],total protein half-life in vivo [3] [h],total protein half-life in vivo [4] [h],total protein half-life in vivo [5] [h],total protein half-life in vivo [6] [h],total protein half-life in vivo [7] [h],total protein half-life in vivo [8] [h],total protein half-life in vivo [9] [h],total protein half-life in vivo [10] [h],total protein half-life in vivo [11] [h],total protein half-life in vivo [12] [h]
MKTRIHVVQGDITKLAVDVIVNAANPSLMGGGGVDGAIHRAAGPALLDACLKVRQQQGDCPTGHAVITLAGDLPAKAVVHTVGPVWRGGEQNEDQLLQDAYLNSLRLVAANSYTSVAFPAISTGVYGYPRAAAAEIAVKTVSEFITRHALPEQVYFVCYDEENAHLYERLLTQQGDE [P0A8D6],4.32 ± 0.98,4.02 ± 0.17,4.294 ± 0.033,3.89 ± 0.28,5.89 ± 0.66,9.58 ± 0.72,4.63 ± 0.32,6.81 ± 0.32,5.95 ± 0.57,12 ± 0.23,,
MKTSRLPIAIQQAVMRRLREKLAQANLKLGRNYPEPKLSYTQRGTSAGTAWLESYEIRLNPVLLLENSEAFIEEVVPHELAHLLVWKHFGRVAPHGKEWKWMMENVLGVPARRTHQFELQSVRRNTFPYRCKCQEHQLTVRRHNRVVRGEAVYRCVHCGEQLVAK,,,,,,5.52,,,,,4.81 ± 0.12,
MKVDIDTSDKLYADAWLGFKGTDWKNEINVRDFIQHNYTPYEGDESFLAEATPATTELWEKVMEGIRIENATHAPVDFDTNIATTITAHDAGYINQPLEKIVGLQTDAPLKRALHPFGGINMIKSSFHAYGREMDSEFEYLFTDLRKTHNQGVFDVYSPDMLRCRKSGVLTGLPDGYGRGRIIGDYRRVALYGISYLVRERELQFADLQSRLEKGEDLEATIRLREELAEHRHALLQIQEMAAKYGFDISRPAQNAQEAVQWLYFAYLAAVKSQNGGAMSLGRTASFLDIYIERDFKAGVLNEQQAQELIDHFIMKIRMVRFLRTPEFDSLFSGDPIWATEVIGGMGLDGRTLVTKNSFRYLHTLHTMGPAPEPNLTILWSEELPIAFKKYAAQVSIVTSSLQYENDDLMRTDFNSDDYAIACCVSPMVIGKQMQFFGARANLAKTLLYAINGGVDEKLKIQVGPKTAPLMDDVLDYDKVMDSLDHFMDWLAVQYISALNIIHYMHDKYSYEASLMALHDRDVYRTMACGIAGLSVATDSLSAIKYARVKPIRDENGLAVDFEIDGEYPQYGNNDERVDSIACDLVERFMKKIKALPTYRNAVPTQSILTITSNVVYGQKTGNTPDGRRAGTPFAPGANPMHGRDRKGAVASLTSVAKLPFTYAKDGISYTFSIVPAALGKEDPVRKTNLVGLLDGYFHHEADVEGGQHLNVNVMNREMLLDAIEHPEKYPNLTIRVSGYAVRFNALTREQQQDVISRTFTQAL,,,,1.87 ± 0.4,2.56 ± 0.43,3.63 ± 1.1,1.88,3.13,3.24,6.82 ± 0.17,4.15,2.12 ± 0.2
MKVGFIGLGIMGKPMSKNLLKAGYSLVVADRNPEAIADVIAAGAETASTAKAIAEQCDVIITMLPNSPHVKEVALGENGIIEGAKPGTVLIDMSSIAPLASREISEALKAKGIDMLDAPVSGGEPKAIDGTLSVMVGGDKAIFDKYYDLMKAMAGSVVHTGEIGAGNVTKLANQVIVALNIAAMSEALTLATKAGVNPDLVYQAIRGGLAGSTVLDAKAPMVMDRNFKPGFRIDLHIKDLANALDTSHGVGAQLPLTAAVMEMMQALRADGLGTADHSALACYYEKLAKVEVTR [P0ABQ2],3.02 ± 0.079,3.5 ± 0.65,3.57 ± 0.23,2.9 ± 0.15,5.47 ± 0.28,9.56 ± 1,3.13 ± 0.46,4.13 ± 0.28,5.31 ± 0.075,10.3 ± 0.15,3.86 ± 0.51,2.9 ± 0.065
MKVKVLSLLVPALLVAGAANAAEVYNKDGNKLDLYGKVDGLHYFSDNKDVDGDQTYMRLGFKGETQVTDQLTGYGQWEYQIQGNSAENENNSWTRVAFAGLKFQDVGSFDYGRNYGVVYDVTSWTDVLPEFGGDTYGSDNFMQQRGNGFATYRNTDFFGLVDGLNFAVQYQGKNGNPSGEGFTSGVTNNGRDALRQNGDGVGGSITYDYEGFGIGGAISSSKRTDAQNTAAYIGNGDRAETYTGGLKYDANNIYLAAQYTQTYNATRVGSLGWANKAQNFEAVAQYQFDFGLRPSLAYLQSKGKNLGRGYDDEDILKYVDVGATYYFNKNMSTYVDYKINLLDDNQFTRDAGINTDNIVALGLVYQF,6.32 ± 1.1,6.59 ± 0.66,7.2 ± 0.57,6.24 ± 0.51,6.64 ± 0.99,11.6 ± 2,5.94 ± 0.54,12.4 ± 1.4,6.7 ± 0.53,13.9 ± 2.6,7.5928 ± 0.0042,3.37 ± 0.1
MKVLVTGATSGLGRNAVEFLCQKGISVRATGRNEAMGKLLEKMGAEFVPADLTELVSSQAKVMLAGIDTLWHCSSFTSPWGTQQAFDLANVRATRRLGEWAVAWGVRNFIHISSPSLYFDYHHHRDIKEDFRPHRFANEFARSKAASEEVINMLSQANPQTRFTILRPQSLFGPHDKVFIPRLAHMMHHYGSILLPHGGSALVDMTYYENAVHAMWLASQEACDKLPSGRVYNITNGEHRTLRSIVQKLIDELNIDCRIRSVPYPMLDMIARSMERLGRKSAKEPPLTHYGVSKLNFDFTLDITRAQEELGYQPVITLDEGIEKTAAWLRDHGKLPR,,6.37 ± 0.24,5.88 ± 0.54,5.48 ± 0.29,,9.95 ± 0.97,6.14 ± 0.16,12.6 ± 0.48,5.6 ± 0.61,9.9 ± 0.57,6.23 ± 0.075,2.62 ± 0.47
MKYDTSELCDIYQEDVNVVEPLFSNFGGRASFGGQIITVKCFEDNGLLYDLLEQNGRGRVLVVDGGGSVRRALVDAELARLAVQNEWEGLVIYGAVRQVDDLEELDIGIQAMAAIPVGAAGEGIGESDVRVNFGGVTFFSGDHLYADNTGIILSEDPLDIE [P0A8R0],5.11 ± 0.26,5.16 ± 0.12,4.57 ± 0.28,4.26 ± 0.1,6.31 ± 1.1,13.4 ± 0.22,5.06 ± 0.22,8.11 ± 0.27,6.02 ± 0.41,12.7 ± 1.7,5.37 ± 0.18,3.25 ± 0.3
MKYKHLILSLSLIMLGPLAHAEEIGSVDTVFKMIGPDHKIVVEAFDDPDVKNVTCYVSRAKTGGIKGGLGLAEDTSDAAISCQQVGPIELSDRIKNGKAQGEVVFKKRTSLVFKSLQVVRFYDAKRNALAYLAYSDKVVEGSPKNAISAVPVMPWRQ [P0AE91],,6.57 ± 0.31,,6.01 ± 0.23,5.9682 ± 0.0034,12.1 ± 2.7,6.39 ± 1.3,13.3 ± 0.76,6.41 ± 0.56,,5.76 ± 0.34,2.92 ± 0.29
MKYQLTALEARVIGCLLEKQVTTPEQYPLSVNGVVTACNQKTNREPVMNLSESEVQEQLDNLVKRHYLRTVSGFGNRVTKYEQRFCNSEFGDLKLSAAEVALITTLLLRGAQTPGELRSRAARMYEFSDMAEVESTLEQLANREDGPFVVRLAREPGKRENRYMHLFSGEVEDQPAVTDMSNAVDGDLQARVEALEIEVAELKQRLDSLLAHLGD,5.48 ± 0.32,6.03 ± 0.02,6.75 ± 0.25,5.16 ± 0.098,6.003 ± 0.036,9.65 ± 0.61,4.69 ± 0.64,10.6 ± 0.71,5.38 ± 0.72,12.8 ± 1.3,,3.01 ± 0.35
MKYRIALAVSLFALSAGSYATTLCQEKEQNILKEISYAEKHQNQNRIDGLNKALSEVRANCSDSQLRADHQKKIAKQKDEVAERQQDLAEAKQKGDADKIAKRERKLAEAQEELKKLEARDY,3.7 ± 0.11,,5.2 ± 0.22,4.66 ± 0.41,5.88,7.58 ± 0.055,5.07 ± 1.1,9.61 ± 1.1,4.12,10.6,3.72 ± 0.12,
MKYSLGPVLWYWPKETLEEFYQQAATSSADVIYLGEAVCSKRRATKVGDWLEMAKSLAGSGKQIVLSTLALVQASSELGELKRYVENGEFLIEASDLGVVNMCAERKLPFVAGHALNCYNAVTLKILLKQGMMRWCMPVELSRDWLVNLLNQCDELGIRNQFEVEVLSYGHLPLAYSARCFTARSEDRPKDECETCCIKYPNGRNVLSQENQQVFVLNGIQTMSGYVYNLGNELASMQGLVDVVRLSPQGTDTFAMLDAFRANENGAAPLPLTANSDCNGYWRRLAGLELQA,,,,,,,,,,,3.35,
MKYVFIEKHQAEFSIKAMCRVLRVARSGWYTWCQRRTRISTRQQFRQHCDSVVLAAFTRSKQRYGAPRLTDELRAQGYPFNVKTVAASLRRQGLRAKASRKFSPVSYRAHGLPVSENLLEQDFYASGPNQKWAGDITYLRTDEGWLYLAVVIDLWSRAVIGWSMSPRMTAQLACDALQMALWRRKRPRNVIVHTDRGGQYCSADYQAQLKRHNLRGSMSAKGCCYDNACVESFFHSLKVECIHGEHFISREIMRATVFNYIECDYNRWRRHSWCGGLSPEQFENKNLA [P0CF81],,,,,,,,,,,5.16 ± 0.69,
MLAFIRFLFAGLLLVISHAFAATVQDEHGTFTLEKTPQRIVVLELSFADALAAVDVIPIGIADDNDAKRILPEVRAHLKPWQSVGTRAQPSLEAIAALKPDLIIADSSRHAGVYIALQQIAPVLLLKSRNETYAENLQSAAIIGEMVGKKREMQARLEQHKERMAQWASQLPKGTRVAFGTSREQQFNLHTQETWTGSVLASLGLNVPAAMAGASMPSIGLEQLLAVNPAWLLVAHYREESIVKRWQQDPLWQMLTAAQKQQVASVDSNTWARMRGIFAAERIAADTVKIFHHQPLTVVK,,,,,5.67,7.06,,,,,,
MLAISSNLSKMIIFIFAIIIIVVLCVITYLYLYKDESLVSKHYINYMAIPENDGVFTWLPDFFPHVAVDISIYTNVEDDYFFLIFP,,5.43,,,,,,,,,3.41,
MLCVKNVSLRLPESRLLTNVNFTVDKGDIVTLMGPSGCGKSTLFSWMIGALAEQFSCTGELWLNEQRIDILPTAQRQIGILFQDALLFDQFSVGQNLLLALPATLKGNARRNAVNDALERSGLEGAFHQDPATLSGGQRARVALLRALLAQPKALLLDEPFSRLDVALRDNFRQWVFSEVRALAIPVVQVTHDLQDVPADSSVLDMAQWSENYNKLR,5.73 ± 0.066,6.47 ± 0.07,6.28 ± 0.58,5.27 ± 0.077,6.13 ± 0.53,10.8 ± 2.7,6.45 ± 0.98,12.7 ± 0.24,5.99 ± 0.28,13.7 ± 0.89,6.284 ± 0.01,3.11 ± 0.35
MLDANKLQQAVDQAYTQFHSLNGGQNADYIPFLANVPGQLAAVAIVTCDGNVYSAGDSDYRFALESISKVCTLALALEDVGPQAVQDKIGADPTGLPFNSVIALELHGGKPLSPLVNAGAIATTSLINAENVEQRWQRILHIQQQLAGEQVALSDEVNQSEQTTNFHNRAIAWLLYSAGYLYCDAMEACDVYTRQCSTLLNTIELATLGATLAAGGVNPLTHKRVLQADNVPYILAEMMMEGLYGRSGDWAYRVGLPGKSGVGGGILAVVPGVMGIAAFSPPLDEDGNSVRGQKMVASVAKQLGYNVFKG,5.64 ± 1.6,4.65 ± 0.16,4.81 ± 0.26,4.57 ± 0.085,> 8,10.1,4.75 ± 0.39,7.14 ± 2.3,6.4 ± 0.21,12.4 ± 0.65,5.46 ± 0.86,
MLDNVLRIATRQSPLALWQAHYVKDKLMASHPGLVVELVPMVTRGDVILDTPLAKVGGKGLFVKELEVALLENRADIAVHSMKDVPVEFPQGLGLVTICEREDPRDAFVSNNYDSLDALPAGSIVGTSSLRRQCQLAERRPDLIIRSLRGNVGTRLSKLDNGEYDAIILAVAGLKRLGLESRIRAALPPEISLPAVGQGAVGIECRLDDSRTRELLAALNHHETALRVTAERAMNTRLEGGCQVPIGSYAELIDGEIWLRALVGAPDGSQIIRGERRGAPQDAEQMGISLAEELLNNGAREILAEVYNGDAPA,4.24 ± 0.11,4.0338 ± 0.0026,4.87 ± 0.84,4.04 ± 0.045,5.48 ± 0.92,,4.12 ± 0.23,7.009 ± 0.051,5.475 ± 0.013,11.4 ± 0.85,3.85 ± 1.1,2.81 ± 0.084
